Measured values as given in article PMC10057379.
Where no end group is shown, it is not given here.

Tests used:
NRP-1 (Homo sapiens) = NRP-1 (Homo sapiens) (UniProt O14786); experiment: SPR; details: cited from earlier work
[1] = target: Neuropilin-1 (NRP-1) (human (endogenous in THP-1)) (UniProt O14786)

Row | uptake of AGuIX@PS@KDKPPR nanoparticles (1 µM, 4 h or 24 h, 37 °C) by M0, M1 and M2 macrophages, porphyrin fluorescence of the cell lysate; control: AGuIX@PS@scramble, 24 h (fold (M0 and M2 against M1, 24 h)) [1] | Molecule | Kd (NRP-1 (Homo sapiens)) [µM]
1 |  | KDKPPR peptide | 4.7
2 | 3 | KDKPPR (also: grafted onto AGuIX nanoparticles with porphyrin and gadolinium) [KDKPPR ligand peptide on AGuIX@PS@KDKPPR nanoparticles] | 
